Data published in the supplement of paper PMC11780869.

System: Bacillus subtilis
Assay: cleaved RNA product abundance (RNA/gDNA barcode ratio) relative to median wild-type variant (ratio to wild type); higher = more accumulation of the downstream cleavage product
Details: cleavage site: cggR-gapA (positions -7 to +36 mutated)
Outline: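 Reporter mRNAs (truncated aprE or tetM) carrying barcoded, mutagenized RNase Y cleavage-site windows were made from oligos with a 9% error rate and integrated into the B. subtilis chromosome. Cultures grew in LB at 37°C from OD600 0.0003 to 0.3. Cleaved RNA was gel-selected, reverse transcribed and barcode-sequenced alongside genomic DNA barcodes, with UMI collapsing. Cleaved product abundance is the RNA:gDNA barcode ratio per variant, scaled to the median wild-type variant.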

[1] = experiment (reporter, strain, medium): exp 4a: truncated aprE reporter, strain BJT201 with 2% xylose (RNase J1 expressed)
[2] = experiment (reporter, strain, medium): exp 2b: truncated aprE reporter, strain BJT200
[3] = experiment (reporter, strain, medium): exp 6: tetM reporter, strain 168

| Sequence | cleaved RNA product abundance [1] | cleaved RNA product abundance [2] | cleaved RNA product abundance [3] |
| --- | --- | --- | --- |
| ACAGACGAAGGAGCCGCAAATTAGTTATTAATGGATGAATAATCCCTCAATATAAATATCTCTCACTTATTTAAA | 0.153 |  |  |
| ACAGACGAAGGAGCCGCAACAAAGTTATTAAGGGATGAATAATCCCTCAATATAAATATCTCTCACTTATTTAAA | 0.8 |  |  |
| ACAGACGAAGGAGCCGCAACAAGTTATTAAGGGATGAATAATCCCTCAATATAAATATCTCTCACTTATTTAAAG | 0.581 |  |  |
| ACAGACGAAGGAGCCGCAACGAAATTATTAAGGGATGAATAATCCCTCAATATAAATATCTCTCACTTATTTAAA | 1.03 | 1.1 |  |
| ACAGACGAAGGAGCCGCAACGAAGTAATTAAGGGATGAATAATCCCTCAATATAAATATCTCTCACTTATTTAAA | 0.347 |  |  |
| ACAGACGAAGGAGCCGCAACGAAGTTAATAAGGGATGAATAATCCCTCAATATAAATATCTCTCACTTATTTAAA |  | 0.227 |  |
| ACAGACGAAGGAGCCGCAACGAAGTTATAAAGGGATGAATAATCCCTCAATATAAATATCTCTCACTTATTTAAA | 0.54 |  |  |
| ACAGACGAAGGAGCCGCAACGAAGTTATTAAAGGATGAATAATCCCTCAATATAAATATCTCTCACTTATTTAAA | 0.213 |  |  |
| ACAGACGAAGGAGCCGCAACGAAGTTATTAACGGATGAATAATCCCTCAATATAAATATCTCTCACTTATTTAAA | 0.155 |  |  |
| ACAGACGAAGGAGCCGCAACGAAGTTATTAAGAGATGAATAATCCCTCAATATAAATATCTCTCACTTATTTAAA | 0.137 |  |  |
| ACAGACGAAGGAGCCGCAACGAAGTTATTAAGGAATAAATAATCCCTCAATATAAATATCTCTCACTTATTTAAA | 0.0859 |  |  |
| ACAGACGAAGGAGCCGCAACGAAGTTATTAAGGAATGAATAATCCCTCAATATAAATATCTCTCACTTATTTAAA | 0.126 | 0.116 |  |
| ACAGACGAAGGAGCCGCAACGAAGTTATTAAGGGAAGAATAATCCCTCAATATAAATATCTCTCACTTATTTAAA | 1.23 |  |  |
| ACAGACGAAGGAGCCGCAACGAAGTTATTAAGGGACGAATAATCCCTCAATATAAATATCTCTCACTTATTTAAA | 0.585 |  |  |
| ACAGACGAAGGAGCCGCAACGAAGTTATTAAGGGATAAATAATCCCTCAATATAAATATCTCTCACTTATTTAAA | 0.739 | 0.891 |  |
| ACAGACGAAGGAGCCGCAACGAAGTTATTAAGGGATGAACAATCCCTCAATATAAATATCTCTCACTTATTTAAA | 0.631 |  |  |
| ACAGACGAAGGAGCCGCAACGAAGTTATTAAGGGATGAATAAACCCTCAATATAAATATCTCTCACTTATTTAAA | 0.538 |  |  |
| ACAGACGAAGGAGCCGCAACGAAGTTATTAAGGGATGAATAATACCTCAATATAAATATCTCTCACTTATTTAAA | 0.18 | 0.111 |  |
| ACAGACGAAGGAGCCGCAACGAAGTTATTAAGGGATGAATAATCCCTCAAAATAAATATCTCTCACTTATTTAAA | 0.357 |  |  |
| ACAGACGAAGGAGCCGCAACGAAGTTATTAAGGGATGAATAATCCCTCAACATAAATATCTCTCACTTATTTAAA | 0.447 |  |  |
| ACAGACGAAGGAGCCGCAACGAAGTTATTAAGGGATGAATAATCCCTCAATATAAATAACTCTCACTTATTTAAA | 0.827 | 0.695 |  |

| Sequence | cleaved RNA product abundance [1] | cleaved RNA product abundance [2] | cleaved RNA product abundance [3] |
| --- | --- | --- | --- |
| ACAGACGAAGGAGCCGCAACGAAGTTATTAAGGGATGAATAATCCCTCAATATAAATATCTCTCACTTATTTAAA | 0.915 | 0.908 | 0.595 |
| ACAGACGAAGGAGCCGCAACGAAGTTATTAAGGGATGAATAATCCCTCAATATAAATCTCTCTCACTTATTTAAA | 0.538 |  |  |
| ACAGACGAAGGAGCCGCAACGAAGTTATTAAGGGATGAATAATCCCTCAATATACATATCTCTCACTTATTTAAA | 0.706 |  |  |
| ACAGACGAAGGAGCCGCAACGAAGTTATTAAGGGATGAATAATCCCTCAATGTAAATATCTCTCACTTATTTAAA | 0.11 |  |  |
| ACAGACGAAGGAGCCGCAACGAAGTTATTAAGGGATGAATAATCCCTCACTATAAATATCTCTCACTTATTTAAA | 0.435 |  |  |
| ACAGACGAAGGAGCCGCAACGAAGTTATTAAGGGATGAATAATCCTTCAATATAAATATCTCTCACTTATTTAAA | 0.448 |  |  |
| ACAGACGAAGGAGCCGCAACGAAGTTATTAAGGGATGAATAATCTCTCAATATAAATATCTCTCACTTATTTAAA | 0.684 |  |  |
| ACAGACGAAGGAGCCGCAACGAAGTTATTAAGGGATGAATACTCCCTCAATATAAATATCTCTCACTTATTTAAA | 0.55 |  |  |
| ACAGACGAAGGAGCCGCAACGAAGTTATTAAGGGATGAATTATCCCTCAATATAAATATCTCTCACTTATTTAAA | 0.91 |  |  |
| ACAGACGAAGGAGCCGCAACGAAGTTATTAAGGGATGTATAATCCCTCAATATAAATATCTCTCACTTATTTAAA | 0.656 |  |  |
| ACAGACGAAGGAGCCGCAACGAAGTTATTAAGGGTTGAATAATCCCTCAATATAAATATCTCTCACTTATTTAAA | 0.508 |  |  |
| ACAGACGAAGGAGCCGCAACGAAGTTATTAAGGTATGAATAATCCCTCAATATAAATATCTCTCACTTATTTAAA | 0.0862 |  |  |
| ACAGACGAAGGAGCCGCAACGAAGTTATTAAGTGATGAATAATCCCTCAATATAAATATCTCTCACTTATTTAAA | 0.13 | 0.0825 |  |
| ACAGACGAAGGAGCCGCAACGAAGTTATTAATGGATGAATAATCCCTCAATATAAATATCTCTCACTTATTTAAA | 0.141 |  |  |
| ACAGACGAAGGAGCCGCAACGAAGTTATTATGGGATGAATAATCCCTCAATATAAATATCTCTCACTTATTTAAA | 0.483 |  |  |
| ACAGACGAAGGAGCCGCAACGAATTTATTAAGGGATGAATAATCCCTCAATATAAATATCTCTCACTTATTTAAA | 1.15 | 0.738 |  |
| ACAGACGAAGGAGCCGCAACGATGTTATTAAGGGATGAATAATCCCTCAATATAAATATCTCTCACTTATTTAAA | 1.36 |  |  |
| ACAGACGAAGGAGCCGCAAGAAGTTATTAAGGGATGAATAATCCCTCAATATAAATATCTCTCACTTATTTAAAG | 0.931 | 1.27 |  |
| ACAGACGAAGGAGCCGCAAGAAGTTATTAAGGGATTAATAATCCCTCAATATAAATATCTCTCACTTATTTAAAG | 0.71 |  |  |
| ACAGACGAAGGAGCCGCAAGAAGTTATTAGGGGATGAATAATCCCTCAATATAAATATCTCTCACTTATTTAAAG | 0.817 |  |  |
| ACAGACGAAGGAGCCGCAAGGAAGCTATTAAGGGATGAATAATCCCTCAATATAAATATCTCTCACTTATTTAAA |  | 0.644 |  |

| Sequence | cleaved RNA product abundance [1] | cleaved RNA product abundance [2] | cleaved RNA product abundance [3] |
| --- | --- | --- | --- |
| ACAGACGAAGGAGCCGCAAGGAAGTAATTAAGGGATGAATAATCCATCAATATAAATATCTCTCACTTATTTAAA |  | 0.122 |  |
| ACAGACGAAGGAGCCGCAAGGAAGTAATTAAGGGATGAATAATCCCTCAATATAAATATCTCTCACTTATTTAAA | 0.182 |  |  |
| ACAGACGAAGGAGCCGCAAGGAAGTTATAAAGGGATGAATAATCCCTCAATATAAATATCTCTCACTTATTTAAA | 0.578 |  |  |
| ACAGACGAAGGAGCCGCAAGGAAGTTATCAAGGGATGAATAATCCCTCAATATAAATATCTCTCACTTATTTAAA | 0.347 | 0.271 |  |
| ACAGACGAAGGAGCCGCAAGGAAGTTATTAACGGATGAATAATCCCTCAATATAAATATCTCTCACTTATTTAAA | 0.121 |  |  |
| ACAGACGAAGGAGCCGCAAGGAAGTTATTAAGGAATGAATAATCCCTCAATATAAATATCTCTCACTTATTTAAA | 0.115 |  |  |
| ACAGACGAAGGAGCCGCAAGGAAGTTATTAAGGCATGAATAATCCCTCAATATAAATATCTCTCACTTATTTAAA | 0.148 |  |  |
| ACAGACGAAGGAGCCGCAAGGAAGTTATTAAGGGACGAATAATCCCTCAATATAAATATCTCTCACTTATTTAAA | 0.614 |  |  |
| ACAGACGAAGGAGCCGCAAGGAAGTTATTAAGGGATAAATAATCCCTCAATATAAATATCTCTCACTTATTTAAA | 0.919 | 0.888 |  |
| ACAGACGAAGGAGCCGCAAGGAAGTTATTAAGGGATGAAAAATCCCTCAATATAAATATCTCTCACTTATTTAAA | 0.663 |  |  |
| ACAGACGAAGGAGCCGCAAGGAAGTTATTAAGGGATGAATAATACCTCAATATAAATATCTCTCACTTATTTAAA | 0.197 | 0.0986 |  |
| ACAGACGAAGGAGCCGCAAGGAAGTTATTAAGGGATGAATAATCCCTCAAAATAAATATCTCTCACTTATTTAAA | 0.314 |  |  |
| ACAGACGAAGGAGCCGCAAGGAAGTTATTAAGGGATGAATAATCCCTCAATATAAAAATCTCTCACTTATTTAAA | 0.35 |  |  |
| ACAGACGAAGGAGCCGCAAGGAAGTTATTAAGGGATGAATAATCCCTCAATATAAATATCTCTCACTTATTTAAA | 0.863 | 0.954 | 1.21 |
| ACAGACGAAGGAGCCGCAAGGAAGTTATTAAGGGATGAATAATCCCTCAATATACATATCTCTCACTTATTTAAA | 0.774 |  |  |
| ACAGACGAAGGAGCCGCAAGGAAGTTATTAAGGGATGAATAATCCTTCAATATAAATATCTCTCACTTATTTAAA | 0.43 |  |  |
| ACAGACGAAGGAGCCGCAAGGAAGTTATTAAGGGATGAATAATCTCTCAATATAAATATCTCTCACTTATTTAAA | 0.86 |  |  |
| ACAGACGAAGGAGCCGCAAGGAAGTTATTAAGGGATGAATAATTCCTCAATATAAATATCTCTCACTTATTTAAA | 0.793 |  |  |
| ACAGACGAAGGAGCCGCAAGGAAGTTATTAAGGGATGAATCATCCCTCAATATAAATATCTCTCACTTATTTAAA | 0.633 | 0.824 |  |
